Experiments:
[1] = target: T1, mouse TLR2 on bone marrow-derived macrophages (BMDMs), Q9QUN7
T1 chain: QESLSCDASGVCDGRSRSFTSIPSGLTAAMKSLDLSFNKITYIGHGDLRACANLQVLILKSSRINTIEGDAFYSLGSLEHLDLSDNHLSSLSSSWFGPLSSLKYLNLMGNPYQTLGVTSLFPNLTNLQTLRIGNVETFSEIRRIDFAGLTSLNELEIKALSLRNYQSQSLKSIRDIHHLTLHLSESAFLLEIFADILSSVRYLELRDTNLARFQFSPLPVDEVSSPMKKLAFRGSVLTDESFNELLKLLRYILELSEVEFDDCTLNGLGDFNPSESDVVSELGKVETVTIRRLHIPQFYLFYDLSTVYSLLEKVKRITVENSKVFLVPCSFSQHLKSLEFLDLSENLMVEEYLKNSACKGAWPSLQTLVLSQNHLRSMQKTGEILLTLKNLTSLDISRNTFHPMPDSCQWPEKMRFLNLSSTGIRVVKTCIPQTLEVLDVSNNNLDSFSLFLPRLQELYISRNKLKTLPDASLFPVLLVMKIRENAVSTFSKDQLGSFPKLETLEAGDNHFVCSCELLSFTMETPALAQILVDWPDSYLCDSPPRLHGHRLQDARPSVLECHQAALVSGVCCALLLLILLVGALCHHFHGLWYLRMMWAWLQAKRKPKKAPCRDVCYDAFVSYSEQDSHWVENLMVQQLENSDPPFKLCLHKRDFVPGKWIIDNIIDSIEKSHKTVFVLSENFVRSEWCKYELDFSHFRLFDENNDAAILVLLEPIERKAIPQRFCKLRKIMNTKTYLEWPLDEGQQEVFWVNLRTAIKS

TLR4-FLAG = target: T2, TLR4-FLAG (UniProt O00206 24-839, limits assumed); assay: Strep pull-down from HEK 293T cells co-expressing Strep-AmTARS and TLR4-FLAG, immunoblot
T2 construct: not shown: FLAG tag
T2 sequence (O00206 24-839 limits assumed): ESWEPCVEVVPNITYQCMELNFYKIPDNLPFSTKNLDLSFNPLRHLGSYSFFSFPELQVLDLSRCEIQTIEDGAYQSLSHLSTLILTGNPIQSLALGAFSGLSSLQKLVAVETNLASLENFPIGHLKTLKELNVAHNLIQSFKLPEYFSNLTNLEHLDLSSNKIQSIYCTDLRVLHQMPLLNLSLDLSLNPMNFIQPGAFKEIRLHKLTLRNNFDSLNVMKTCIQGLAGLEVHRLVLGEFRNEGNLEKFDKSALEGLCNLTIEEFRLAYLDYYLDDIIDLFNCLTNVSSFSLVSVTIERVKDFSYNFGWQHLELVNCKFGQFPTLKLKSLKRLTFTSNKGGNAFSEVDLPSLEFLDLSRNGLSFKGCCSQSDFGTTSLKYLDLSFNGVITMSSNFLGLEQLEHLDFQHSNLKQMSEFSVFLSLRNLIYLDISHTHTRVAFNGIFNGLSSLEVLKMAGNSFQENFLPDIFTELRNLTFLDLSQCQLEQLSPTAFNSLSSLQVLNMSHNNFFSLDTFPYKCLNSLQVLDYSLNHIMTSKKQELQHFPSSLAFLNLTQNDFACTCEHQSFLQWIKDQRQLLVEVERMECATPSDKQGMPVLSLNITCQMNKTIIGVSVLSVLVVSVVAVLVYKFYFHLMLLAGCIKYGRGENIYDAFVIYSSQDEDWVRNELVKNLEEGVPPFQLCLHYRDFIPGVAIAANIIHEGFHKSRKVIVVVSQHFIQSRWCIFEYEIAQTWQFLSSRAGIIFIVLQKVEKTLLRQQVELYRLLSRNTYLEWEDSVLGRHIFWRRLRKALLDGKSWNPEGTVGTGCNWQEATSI

[2] = system: mouse bone marrow-derived macrophages (BMDMs); assay: ELISA of immune cytokine secretion in BMDMs under normal conditions; format: cell-based; conditions: normal (non-inflammatory) conditions, 24 h
Experimental: Specifically, mouse bone marrow-derived macrophages (BMDMs) as mouse-derived immune cells were extracted from the mouse thighbone and shinbone, and then cultured in DMEM containing 10% fetal bovine serum (FBS) and antibiotics. Human macrophages (THP1) as human-derived immune cells were cultured in RPMI media containing 10% FBS and antibiotics.
The cultured cells were treated with AmTARS at 0.1 μM, 0.2 μM, and 0.5 μM for 24 h to obtain cell cultures. For cell removal, the media were centrifuged at 500×g for 10 min to obtain supernatants, which were then analyzed using an ELISA set (mouse interleukin (IL)-6, mouse IL-10, mouse tumor necrosis factor (TNF)-α, human IL-6, human IL-10, human TNF-α; BD Biosciences) to investigate the secretion of mouse- and human-derived immune cytokines. […]

BMDMs from TLR2-KO mouse = assay: IL-10 production in BMDMs from TLR2 knock-out mice; format: cell-based
Text: The TLR2-dependent immune function of AmTARS was further corroborated using TLR2 knock-out (KO) mice. […] However, IL-10 production by […] (U1/U2) was abolished in BMDMs from TLR2-KO mice, providing further evidence that AmTARS regulates host immune cells via its unique regions in a TLR2-dependent manner (FIG. 28D).

| Molecule | activation of PI3K and AKT, and phosphorylation of GSK3β at Ser9 (western blot) in BMDMs [1] | binding result (TLR4-FLAG) | secretion/production of IL-10 [2] | IL-10 production (BMDMs from TLR2-KO mouse) |
| --- | --- | --- | --- | --- |
| Strep-tagged Akkermansia muciniphila threonyl-tRNA synthetase (Strep-AmTARS) (enzyme, The tag is put N-terminal from the name 'Strep-AmTARS'; not shown: 2 x Strep tag from vector pEXPR-IBA105) MSEHKERKTLEERQQMSDLERLRHSCAHVLATAICRLWPDAQLAGGPAVDNGFYYDVELDHRISTEDFERIEEEMKKVVKENQVFQKEVISRADAMKMAESGELGALGPRSEPSRFKIDLLNDIPEDEEISLYRNGDFTDLCAGPHVGRTGNCKAFKIMSVASAFYKGDKNRPMLQRIYGTCFPNRTQLDEHLERLEEARRRDHRKLGRELGLFCIDESVGQGLILWKPKGALIRRSLQDFITEELDKLGYSQVYTPNIGKLDLYRTSGHFPYYQESQYAPIPERDAMEKLSQEGASCAELFNGLATGTIEGYMLKPMNCPHHIKIYANDAHSYRDLPVRLAEFGTVYRWEQSGELGGMTRVRGFTQDDAHIFCTPDQLAGEIRQCLGIVKTIFGTLGMTDYRVRLSMRDPESDKYVGSPENWDKAEQALREAAEWLGADYSEEAGEAAFYGPKIDFIVRDAIGREWQLGTVQVDYNLPERFDLHYTGADNKPHRPVMVHRAPFGSMERFTGLLIEHFEGKFPTWLSPEQVRVLPISDKVTDVAAAHRTALAARGVRVTVDETPDKIGAKIRNARLDRVPYMLVLGQREAEDGTVSVRHRDKGDLGAMPFEQFADLVAREIAERHISPVI | AmTARS activated PI3K and AKT, and subsequently inhibited GSK3β activity via AKT-mediated phosphorylation at Ser9, in BMDMs | no binding | – | – |
| EcTARS (U1/U2): Engineered EcTARS incorporating the AmTARS U1 and U2 regions, SEQ ID NO: 18 (protein, EcTARS(U1/U2)) MPVITLPDGSQRHYDHAVSPMDVALDIGPGLAKACIAGRVNGELVDACDLIENDAQLSIITAKDEEGLEIIRHSCAHLLGHAIKQLWPHTKMAIGPVIDNGFYYDVDLDRTLTQEDVEALEKRMHELAEKNYDVIKKKVSWHEARETFANRGAESGELGALGPRSEPESYKVSILDENIAHDDKPGLYFHEEYVDMCRGPHVPNMRFCHHFKLMKTAGAYWRGDSNNKMLQRIYGTAWADKKALNAYLQRLEEAAKRDHRKIGKQLDLYHMQEEAPGMVFWHNDGWTIFRELEVFVRSKLKEYQYQEVKGPFMMDRVLWEKTGHWDNYKDAMFTTSSEKLSQEGASCAELFNGLATGTIEGNREYCIKPMNCPGHVQIFNQGLKSYRDLPLRMAEFGSCHRNEPSGSLHGLMRVRGFTQDDAHIFCTEEQIRDEVNGCIRLVYDMYSTFGFEKIVVKLSTRPEKRIGSDEMWDRAEADLAVALEENNIPFEYQLGEGAFYGPKIEFTLYDCLDRAWQCGTVQLDFSLPSRLSASYVGEDNERKVPVMIHRAILGSMERFIGILTEEFAGFFPTWLAPVQVVIMNITDSQSEYVNELTQKLSNAGIRVKADLRNEKIGFKIREHTLRRVPYMLVCGDKEVESGKVAVRTRRGKDLGSMDVNEVIEKLQQEIRSRSLKQLEE | – | – | conferred the ability to trigger IL-10 production | abolished |
